# Measurements as given in US20190315859A1.
# How the values were obtained:
# [1] = target: human CD19 expressed on the cell surface (native format) (human) (UniProt P15391); experiment: bi-specific antibody titration flow cytometry on Raji cells
# [2] = target: human CD19 expressed on the cell surface (native format) (human) (UniProt P15391); experiment: apparent KD from bi-specific antibody titration flow cytometry on Raji cells
# [3] = target: human CD19 expressed on the cell surface (native format) (human) (UniProt P15391); experiment: flow cytometry, human PBMC gated on CD20+CD3- B cells, FITC anti-His detection
# Sequence of human CD19 expressed on the cell surface (native format) (human) (P15391 20-488 limits assumed): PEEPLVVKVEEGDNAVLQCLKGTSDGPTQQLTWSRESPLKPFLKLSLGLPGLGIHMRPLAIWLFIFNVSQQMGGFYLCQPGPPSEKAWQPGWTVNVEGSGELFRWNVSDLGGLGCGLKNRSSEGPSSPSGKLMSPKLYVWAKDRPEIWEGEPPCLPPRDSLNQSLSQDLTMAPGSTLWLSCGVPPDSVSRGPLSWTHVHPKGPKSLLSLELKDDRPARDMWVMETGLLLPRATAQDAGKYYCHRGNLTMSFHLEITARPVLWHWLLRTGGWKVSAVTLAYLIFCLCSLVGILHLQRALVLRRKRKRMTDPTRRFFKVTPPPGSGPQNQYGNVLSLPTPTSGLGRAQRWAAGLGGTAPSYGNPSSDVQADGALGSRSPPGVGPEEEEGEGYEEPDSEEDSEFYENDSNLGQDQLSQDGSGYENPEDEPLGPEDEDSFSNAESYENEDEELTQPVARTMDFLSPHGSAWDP
EC50 [1] [µg/mL],Kd [2] [nM],Mean Fluorescence Intensity (MFI) in FITC channel [3] [MFI],Binder
0.214,4.1,2200,"CD19×CD3 bi-specific antibody based on clone 6 (bispecific antibody, part only; not given: anti-CD3 scFv arm, linker, His tag, not shown: another chain or arm of the molecule; small tags and cut ends) scFv: QAVLTQPPSVSEAPRQRVTISCSGSSSNVGNNAVNWYQQVPGKAPKLLIYYDDLLSSGVSDRFSGSKSGTSASLAISGLQSEDEADYYCAAWDDSLNGPVFGGGTKLTVLGSRGGGGSGGGGSGGGGSLEMAEVQLVQSGAEVKKPGESLKISCKGSGYSFTSYWIGWVRQMPGKGLEWMGIIYPGDSDTRYSPSFQGQVTISADKSISTAYLQWSSLKASDTAMYYCARWSSTWDSMYMDYWGQGTLVTVSS"
,,1880,"CD19×CD3 bi-specific antibody based on clone 7 (bispecific antibody, part only; not given: anti-CD3 scFv, linker, His tag, not shown: another chain or arm of the molecule; small tags and cut ends) scFv: QPVLTQPPSVSVAPGKTARITCGGNNIGSESVHWYQQKPGQAPMVVIYYDSNRPSGIPERFSGSNSGNTATLTVSRVEAEDEADYYCQVWNSSSDHRGVFGGGTKLTVLGSRGGGGSGGGGSGGGGSLEMAEVQLVQSGAEVKKPGESLRISCKGSGYSFTSYWIGWVRQMPGKGLEWMGIIYPGDSDTRYSPSFQGQVTISADKSISTAYLQWSSLKASDTAMYYCARVTYSMDSYYFDSWGQGTLVTVSS"
0.081,1.6,,"CD19×CD3 bi-specific antibody based on variant clone 5-3 (bispecific antibody, part only; not given: anti-CD3 scFv, linker, His tag, not shown: another chain or arm of the molecule; small tags and cut ends) scFv: LPVLTQPPSVSVAPGKTARITCGGNNIGSKSVHWYQQKPGQAPVLVVYDDSNRPSGIPERFSGSNSGNTATLTISRVEAGDEADYYCQVWDSSSEYVVFGGGTKLTVLGSRGGGGSGGGGSGGGGSLEMAEVQLVQSGAEVKKPGESLKISCKGSGYSFTSYWIGWVRQMPGKGLEWMGIIYPGDSDTRYSPSFQGQVTISADKSISTAYLQWSSLKASDTAMYYCARQVWGWQGGMYPRSNWWYNMDSWGQGTLVTVSS"
